Experimental data from patent publication US20090060920A1 (Eli Lilly, published 2009).
Values belong to the binder of their own block, whether it stands above or below them.

B1: 9-28 ghrelin fragment (peptide)
peptide: HQRVQQRKESKKPPAKLQPR
B2: 4-28 (cys) ghrelin fragment (peptide)
peptide: FLSPEHQRVQQRKESKKPPAKLQPRC
B3: Fab 5611 (Fab, V domains shown)
VH: QVQLQQSEAELVRPGSSVKISCKASGYAFSNYWMNWVKQRPGQGLEWIGQIYPGDGDTKYNGKFKGKATLTADKSSSSAYMQLSSLTSEDSAVYFCVITTVVGGDSDVWGAGTTVTVSS
VL: DLVLTQSPASLAVSLGQRATISCRASKSVSTSGYSYMHWYQQKPGQPPKLLIYLASNLESGVPARFSGSGSGTDFTLNIHPVEEEDAATYYCQHSRELPYTFGGGTKLEIKR
notes: Murine Fab from an Omniclonal library of immunised C57Bl6 mice

Legend:
Fab 5611 = molecular target: B3; assay: competition ELISA: peptide preincubated with 10 nM Fab 5611, mixture added to a plate coated with desacyl ghrelin, bound Fab detected with anti-mouse kappa-HRP, A490
Procedure: (§1) (450-655061) by adding 60 uL of a 0.4 μg/ml (in H₂O) solution to each well. The assay plate is placed in a dry 37° C. incubator overnight. The next day, the assay plate is washed (wash buffer: 0.1% Tween 20, Tris-buffered saline (TBS)), and blocked with casein/PBS (Pierce 37528).
(§2) “2-28 acyl ghrelin” and “3-28 acyl ghrelin” in FIG. 1 refer to acyl ghrelins (SEQ ID NO: 17) missing the first one or two amino acids at the N-terminal end of the molecule, respectively. In FIG. 2, “1-8 (cys) desacyl” refers to a desacyl ghrelin fragment consisting of amino acids 1-8 of SEQ ID NO: 17, with an additional cysteine residue at the C-terminus. “4-28 (cys)” refers to a ghrelin fragment consisting of amino acids 4-28, also with an additional cysteine residue at the C-terminus. “9-28” refers to a ghrelin fragment consisting of amino acids 9-28 of SEQ ID NO: 17. Dilutions of the ghrelin, ghrelin analogs, and Fab are made in casein/PBS. These mixtures are incubated in a separate plate for 1 hour at room temperature.
(§3) The blocking solution is removed from the assay plate and 50 uL of the ghrelin/Fab mixture are added to the assay plate in duplicate. This is allowed to sit for 30 minutes at room temperature. […] The reaction is stopped with 100 uL of 1 N HCl, and the absorbance of the wells is read at 490 nm (Molecular Device SpectraMax250).

desacyl human ghrelin [1] = molecular target: T1, desacyl human ghrelin (human); assay: SPR (BIAcore 2000), Fab captured by goat anti-mouse kappa, ghrelin in solution, 25 C
T1 construct: also called desacyl ghrelin; 1-28 desacyl ghrelin
Procedure: (§4) Except where noted, all reagents and materials are purchased from BIAcore® AB (Upsala, Sweden). All measurements are performed at 25° C. Samples containing rat or human desacyl ghrelin are dissolved in HBS-EP buffer (150 mM sodium chloride, 3 mM EDTA, 0.005% (w/v) surfactant P-20, and 10 mM HEPES, pH 7.4). A capture antibody, goat anti-mouse Kappa (Southern Biotechnology, Inc), is immobilized onto flow cells using amine-coupling chemistry. Flow cells (1-4) are activated for 7 minutes with a 1:1 mixture of 0.1 M N-hydroxysuccinimide and 0.1 M 3-(N,N-dimethylamino)propyl-N-ethylcarbodiimide at a flow rate of 10 μl/min. Goat anti-mouse Kappa (30 μg/mL in 10 mM sodium acetate, pH 4.5) is manually injected over all 4 flow cells at a flow rate of 10 μL/min. The surface density is monitored and additional goat anti-mouse Kappa is injected if needed to individual cells until all flow cells reach a surface density of 4500-5000 response units (RU). Surfaces are blocked with a 7 minute injection of 1 M ethanolamine-HCl, pH 8.5 (10 μL/min). […]
(§5) Collection of kinetic binding data is performed at maximum flow rate (100 μL/min) and a low surface density to minimize mass transport effects. […] Signal is monitored as flow cell 2 minus flow cell 1, flow cell 3 minus flow cell 1 and flow cell 4 minus flow cell 1. […]

[2] = molecular target: B2; assay: competition ELISA on coated desacyl ghrelin, Fab at 10 nM
Procedure: as §1, §2, §3

9-28 ghrelin fragment = molecular target: B1; assay: as above
Procedure: as §1, §2, §3

desacyl human ghrelin [3] = molecular target: T1, desacyl human ghrelin; assay: SPR (BIAcore 2000), antibody captured by goat anti-mouse kappa, ghrelin in solution, 25 C
Procedure: as §4, §5

Binder: B1
- binding result (Fab 5611): no binding (tested: 1000 nM)

Binder: B2
- binding result (Fab 5611): no binding (tested: 1000 nM)

Binder: B3
- Kd (desacyl human ghrelin [1]): 0.138 nM
- binding result [2]: no binding (tested: at the concentrations tested)
- binding result (9-28 ghrelin fragment): no binding (tested: at the concentrations tested)

- Kd (desacyl human ghrelin [3]): 0.226 nM
B4: E8 mouse IgG1 monoclonal antibody (antibody, V domains shown)
VH: QVQLQQSEAELVRPGSSVKISCKASGYAFSNYWMNWVKQRPGQGLEWIGQIYPGDGDTKYNGKFKGKATLTADKSSSSAYMQLSSLTSEDSAVYFCVITTVVGGDSDVWGAGTTVTVSS
VL: DLVLTQSPASLAVSLGQRATISCRASKSVSTSGYSYMHWYQQKPGQPPKLLIYLASNLESGVPARFSGSGSGTDFTLNIHPVEEEDAATYYCQHSRELPYTFGGGTKLEIKR
notes: domain: constant domain of mouse IgG1; also called E8 antibody; E8 mouse IgG1 mAb
